Measured values reported in the supplement of paper PMC11865577.

Key:
Assay in all cases: pull-down binding Z-score (relative to library population); higher = stronger binding
[1] = tested on: TO-3-N3 (biotin conjugate); conditions: RNA library: Library-2
Summary of the method: (§1)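 A heat-folded, dye-end-labelled (Cy5 or Cy3) RNA library (1 μg, phosphate/NaCl/KCl buffer) was exposed for 60 min at 25 °C to streptavidin beads holding 100 pmol of biotin-conjugated small molecule. RNA retained on the beads was eluted in hot SDS and hybridised to a DNA barcode microarray for 20 h at 55.5 °C. Binding scores were Z-scores against the library mean and standard deviation, calculated after subtracting beads alone and taking trimmed means of replicate probes.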

[2] = tested on: TO-N3 (biotin conjugate); conditions: RNA library: Library-2
Summary of the method: as §1

[3] = tested on: TO-3-N3-2 (biotin conjugate); conditions: RNA library: Library-2
Summary of the method: as §1

[4] = tested on: TO-N3-2 (biotin conjugate); conditions: RNA library: Library-2
Summary of the method: as §1

[5] = tested on: G-clamp-N3 (biotin conjugate); conditions: RNA library: Library-1 (pre-miRNA loops + repeats)
Summary of the method: as §1

UAGGAGCUGUGCCUCCUGGCCUAUUCCUGUUCGUG [hsa-mir-8056]
pull-down binding Z-score [1]: -0.344
pull-down binding Z-score [2]: 0.0941
pull-down binding Z-score [3]: -0.167
pull-down binding Z-score [4]: 0.623
pull-down binding Z-score [5]: 0.294

CCUUCGCUUUAUUUGUGACGAAUC [hsa-mir-154]
pull-down binding Z-score [1]: -0.799
pull-down binding Z-score [2]: -0.676
pull-down binding Z-score [3]: -0.374
pull-down binding Z-score [4]: -0.185
pull-down binding Z-score [5]: -0.922

CUGAACCCGUGGGUGAGGAGUGCAG [hsa-mir-4690]
pull-down binding Z-score [1]: 0.367
pull-down binding Z-score [2]: 0.515
pull-down binding Z-score [3]: 0.0142
pull-down binding Z-score [4]: 0.925
pull-down binding Z-score [5]: 0.824

UUUGGUAUUACUUUCAGUGGCAAA [hsa-mir-548j]
pull-down binding Z-score [1]: -0.416
pull-down binding Z-score [2]: -0.448
pull-down binding Z-score [3]: 0.0283
pull-down binding Z-score [4]: -0.485
pull-down binding Z-score [5]: 0.937

GAGCUCAGGAGCUC [hsa-mir-8052]
pull-down binding Z-score [1]: -0.634
pull-down binding Z-score [2]: -0.9
pull-down binding Z-score [3]: -0.529
pull-down binding Z-score [4]: -0.448
pull-down binding Z-score [5]: 0.271

GAGGGGCUUACUGCCCUGUGGGGCUCUCUGGACCCAGUGCCAUGCUUCUC [hsa-mir-6728]
pull-down binding Z-score [1]: -0.224
pull-down binding Z-score [2]: 0.295
pull-down binding Z-score [3]: -0.363
pull-down binding Z-score [4]: 1.23
pull-down binding Z-score [5]: 0.541

AGGCCGACGAGCAGCGCAUCCUCUUACCCGGCUA [hsa-mir-138-2]
pull-down binding Z-score [1]: 0.181
pull-down binding Z-score [2]: 1.11
pull-down binding Z-score [3]: 0.171
pull-down binding Z-score [4]: 1.95
pull-down binding Z-score [5]: -1.48

GACGUCCAAUCUCUUUGGGACGCC [hsa-mir-2682]
pull-down binding Z-score [1]: 0.551
pull-down binding Z-score [2]: 0.419
pull-down binding Z-score [3]: -0.309
pull-down binding Z-score [4]: -0.436
pull-down binding Z-score [5]: 2.24

GGCAGGUGUGGUUGGAGGAAGCAGCCUGAACCUGCC [hsa-mir-6778]
pull-down binding Z-score [1]: -0.114
pull-down binding Z-score [2]: 0.227
pull-down binding Z-score [3]: 0.333
pull-down binding Z-score [4]: 0.361
pull-down binding Z-score [5]: 0.663

GACUUCCAUGACAUGAAAUAGGAAGUC [hsa-mir-616]
pull-down binding Z-score [1]: -0.453
pull-down binding Z-score [2]: -1.12
pull-down binding Z-score [3]: -0.183
pull-down binding Z-score [4]: -0.705
pull-down binding Z-score [5]: 0.351

UUUGUGGGGCGAGGAGGGACCUGUACUAGCCAUGGUUCUGAUCACAUAUG [hsa-mir-6834]
pull-down binding Z-score [1]: 3.06
pull-down binding Z-score [2]: 3.83
pull-down binding Z-score [3]: 2.72
pull-down binding Z-score [4]: 2.89
pull-down binding Z-score [5]: 0.432

CCCACUUCCUGGA [hsa-mir-4260]
pull-down binding Z-score [1]: -0.513
pull-down binding Z-score [2]: -0.494
pull-down binding Z-score [3]: -0.529
pull-down binding Z-score [4]: -0.0316
pull-down binding Z-score [5]: -0.562

CAAUAGUAAAAAGACAACCUGUUG [hsa-mir-3133]
pull-down binding Z-score [1]: -0.559
pull-down binding Z-score [2]: -0.651
pull-down binding Z-score [3]: 0.0706
pull-down binding Z-score [4]: -0.486
pull-down binding Z-score [5]: 0.427

CACUCCCGGGAUCCCCAGGGAC [hsa-mir-3176]
pull-down binding Z-score [1]: 0.149
pull-down binding Z-score [2]: 0.25
pull-down binding Z-score [3]: -0.144
pull-down binding Z-score [4]: 0.68
pull-down binding Z-score [5]: -1.23

GAGUUUGGAGUCGGUGGGUGGAGCCAAACUG [hsa-mir-6860]
pull-down binding Z-score [1]: 1.13
pull-down binding Z-score [2]: 1.5
pull-down binding Z-score [3]: 0.706
pull-down binding Z-score [4]: 1.52
pull-down binding Z-score [5]: 2.37

GCUGGUGACAUUGCUAAUUCAUUUCACACCAGC [hsa-mir-4293]
pull-down binding Z-score [1]: -0.991
pull-down binding Z-score [2]: -1.31
pull-down binding Z-score [3]: -0.177
pull-down binding Z-score [4]: -0.912
pull-down binding Z-score [5]: -0.642

UGCCAUUACUCUCAGUGGCA [hsa-mir-548y]
pull-down binding Z-score [1]: -0.836
pull-down binding Z-score [2]: -1.16
pull-down binding Z-score [3]: -0.564
pull-down binding Z-score [4]: -1.01
pull-down binding Z-score [5]: -0.0483

GGAAGGGAGCCCCAUUUACAGUGGUAACUUCCUUUCC [hsa-mir-5006]
pull-down binding Z-score [1]: 1.35
pull-down binding Z-score [2]: 1.3
pull-down binding Z-score [3]: 0.679
pull-down binding Z-score [4]: 0.181
pull-down binding Z-score [5]: -0.388

CCCUGGGGAGCUGCUGCAGGCAGCAGGUGGGCGGGACGCCAGCAGGCUGUCUAGCUGUUCCCAUGAUGG [hsa-mir-6843]
pull-down binding Z-score [1]: 0.919
pull-down binding Z-score [2]: 1.81
pull-down binding Z-score [3]: 0.49
pull-down binding Z-score [4]: 2.24
pull-down binding Z-score [5]: 2.14

GCGGGGUGUGGUGGGGCUGGGGCUGGCCCCCUCCUCACACCUC [hsa-mir-6800]
pull-down binding Z-score [1]: 4.74
pull-down binding Z-score [2]: 4.29
pull-down binding Z-score [3]: 5.35
pull-down binding Z-score [4]: 3.96
pull-down binding Z-score [5]: 1.21

GUGAACCUGAAUUUGCCUUGGGUUUCCU [hsa-mir-670]
pull-down binding Z-score [1]: -0.509
pull-down binding Z-score [2]: 0.262
pull-down binding Z-score [3]: -0.132
pull-down binding Z-score [4]: 1.76
pull-down binding Z-score [5]: -0.325

AACAUACAUUUGUCUUGGUGUGUU [hsa-mir-4684]
pull-down binding Z-score [1]: -1.01
pull-down binding Z-score [2]: -1.44
pull-down binding Z-score [3]: -0.744
pull-down binding Z-score [4]: -1.35
pull-down binding Z-score [5]: 3.35

GAAGCCUUGAUCAGAAGCUAGGAAGGCUUC [hsa-mir-4762]
pull-down binding Z-score [1]: 0.782
pull-down binding Z-score [2]: 0.654
pull-down binding Z-score [3]: 0.433
pull-down binding Z-score [4]: 0.593
pull-down binding Z-score [5]: 1.95

GUGUCCUGAAAUUCACAGGACUG [hsa-mir-4700]
pull-down binding Z-score [1]: 0.856
pull-down binding Z-score [2]: 0.923
pull-down binding Z-score [3]: 0.237
pull-down binding Z-score [4]: 0.643
pull-down binding Z-score [5]: 1.38

CCGACUCGGGCUCUGGAGCAGUC [hsa-mir-152]
pull-down binding Z-score [1]: 0.836
pull-down binding Z-score [2]: 1.09
pull-down binding Z-score [3]: 0.274
pull-down binding Z-score [4]: 0.692
pull-down binding Z-score [5]: 0.748

GAAGCCGCUCCCACCUGACCCUCACGGCCUC [hsa-mir-3605]
pull-down binding Z-score [1]: 1.3
pull-down binding Z-score [2]: 1.33
pull-down binding Z-score [3]: 0.468
pull-down binding Z-score [4]: 1.46
pull-down binding Z-score [5]: -0.691

GCAGUGUCGUGGUCACAGCUUGCUGC [hsa-mir-1273h]
pull-down binding Z-score [1]: -0.396
pull-down binding Z-score [2]: -0.0941
pull-down binding Z-score [3]: -0.171
pull-down binding Z-score [4]: 1.12
pull-down binding Z-score [5]: 1.45

GUGUACCUCAUGUGUGUACAC [hsa-mir-5692a-2_5692a-1]
pull-down binding Z-score [1]: -0.584
pull-down binding Z-score [2]: -0.563
pull-down binding Z-score [3]: -0.344
pull-down binding Z-score [4]: 0.335
pull-down binding Z-score [5]: -0.853

UCCCCAGAAGCUGAGGAUUAGGGGA [hsa-mir-6503]
pull-down binding Z-score [1]: 0.0937
pull-down binding Z-score [2]: -0.0188
pull-down binding Z-score [3]: -0.131
pull-down binding Z-score [4]: -0.108
pull-down binding Z-score [5]: 1.93

GCAUCCAGACAGCGGGCGAAUGC [hsa-mir-6836]
pull-down binding Z-score [1]: -0.0821
pull-down binding Z-score [2]: 0.33
pull-down binding Z-score [3]: -0.113
pull-down binding Z-score [4]: 1.13
pull-down binding Z-score [5]: 0.0557

CUGAGGACUGAGGCUCACCUUG [hsa-mir-6772]
pull-down binding Z-score [1]: -0.057
pull-down binding Z-score [2]: 0.412
pull-down binding Z-score [3]: 0.0747
pull-down binding Z-score [4]: 0.813
pull-down binding Z-score [5]: 0.0792
